These are literature values, as cited in patent US9145575B2, “Detection of protease and protease activity using a single nanocrescent SERS probe” (The Regents of the University of California, priority 2006, dated 2015).

The data set concerns the target PSA (Homo sapiens, UniProt P07288). To be noted: mouse model.

PSA, sequence (P07288 25-261): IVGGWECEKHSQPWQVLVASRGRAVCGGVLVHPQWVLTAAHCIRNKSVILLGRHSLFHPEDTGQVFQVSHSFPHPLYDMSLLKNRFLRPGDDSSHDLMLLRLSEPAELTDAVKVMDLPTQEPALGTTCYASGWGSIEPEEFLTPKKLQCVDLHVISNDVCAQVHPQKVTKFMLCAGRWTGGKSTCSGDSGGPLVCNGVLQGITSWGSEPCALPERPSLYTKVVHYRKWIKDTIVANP

In the case of “HSSKLQ-L (HSSKLQLAAAC; Synthetic protease substrate)”, the “cleavage by proteases in vivo” value is given as “cleaved by PSA but not by any other proteases”.
